Numbering of substitutions follows the chain as printed.
T1: human GFRAL (human, UniProt Q6UXV0 19-394)
T1 sequence (looked up): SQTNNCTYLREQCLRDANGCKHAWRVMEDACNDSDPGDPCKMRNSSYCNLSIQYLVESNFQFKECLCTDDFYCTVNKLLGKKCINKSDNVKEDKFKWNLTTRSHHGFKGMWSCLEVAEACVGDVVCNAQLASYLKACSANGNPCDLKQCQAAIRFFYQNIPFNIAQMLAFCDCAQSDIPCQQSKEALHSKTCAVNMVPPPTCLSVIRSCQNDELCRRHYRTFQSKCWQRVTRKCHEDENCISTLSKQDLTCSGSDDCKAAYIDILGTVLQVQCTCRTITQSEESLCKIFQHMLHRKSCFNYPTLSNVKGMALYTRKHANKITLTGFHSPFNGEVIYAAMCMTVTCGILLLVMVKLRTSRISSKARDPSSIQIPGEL

B1: MLC105 (ligand)
chain: HGEGTFTSDVSSYLEEQAAKEFIAWLVRGGGGAQPGAQPGAQPGAQPCQAPGAQPGAQPGAQPGQEPGAQPGQEPGAQPGQEPGAQPGQEPGAQPGQEPGAQPGQEPGAQPARQGDHCPLGPGRCCRLHTVRASLEDLGWADWVLSPREVQVTMCIGACPSQFRAANLHAQIKTSLHRLKPDTVPAPCCVPASYNPMVLIQKTDTGVSLQTYDDLLAKDCHCI
modifications: Moiety B (HOOC-(CH2)16-CO-gGlu-2XADO-EDA-CO-CH2) on 17C of Linker (48C of fusion polypeptide)
B2: MLC107 (ligand)
chain: B1 chain with C48G, Q49A, A50Q, G56C, A57Q, Q58A
modifications: Moiety B (HOOC-(CH2)16-CO-gGlu-2XADO-EDA-CO-CH2) on 25C of Linker (56C of fusion polypeptide)
B3: MLC030 (ligand)
chain: HGEGTFTSDVSSYLEEQAAREFIAWLVRGGGGQEPGQEPGQEPGQKPGQEPGQEPGQEPGQEPGAQPGAQPGAQPGAQPGAQPGAQPGAQPGAQPGAQPGAQPGAQPGAQPARQGDHCPLGPGRCCRLHTVRASLEDLGWADWVLSPREVQVTMCIGACPSQFRAANLHAQIKTSLHRLRPDTVPAPCCVPASYNPMVLIQRTDTGVSLQTYDDLLARDCHCI
modifications: Moiety A (HOOC-(CH2)16-CO-gGlu-2XADO) on 15K of Linker (46K of fusion polypeptide)
B4: MLC047 (ligand)
chain: HGEGTFTSDVSSYLEEQAAREFIAWLVRGGGGQEPGAQPGQEPGAQPGQEPGAQPGQEPGAQPGQEPGAQKGQEPGAQPGAQPGAQPGAQPGAQPGAQPGAQPGAQPGAQPARQGDHCPLGPGRCCRLHTVRASLEDLGWADWVLSPREVQVTMCIGACPSQFRAANLHAQIKTSLHRLRPDTVPAPCCVPASYNPMVLIQRTDTGVSLQTYDDLLARDCHCI
modifications: Moiety A (HOOC-(CH2)16-CO-gGlu-2XADO) on 40K of linker (71K of fusion polypeptide) per Table 2; Table 3 prints 41K of linker
B5: MLC064 (ligand)
chain: B4 chain with K71P, Q82K
modifications: Moiety A (HOOC-(CH2)16-CO-gGlu-2XADO) on 51K of Linker (82K of fusion polypeptide)
B6: MLC004 (ligand)
chain: B4 chain with R20K, K71P
modifications: Moiety A (HOOC-(CH2)16-CO-gGlu-2XADO) on 26K of GLP-1 (20K of fusion polypeptide)
B7: MLC016 (ligand)
chain: B4 chain with K71P, P83K
modifications: Moiety A (HOOC-(CH2)16-CO-gGlu-2XADO) on 52K of Linker (83K of fusion polypeptide)
B8: MLC018 (ligand)
chain: B4 chain with K71P, A81Q, Q82E, P83K, A89Q, Q90E, A97Q, Q98E, A105Q, Q106E
modifications: Moiety A (HOOC-(CH2)16-CO-gGlu-2XADO) on 52K of Linker (83K of fusion polypeptide)
B9: MLC017 (ligand)
chain: B4 chain with K71P, Q86K
modifications: Moiety A (HOOC-(CH2)16-CO-gGlu-2XADO) on 55K of Linker (86K of fusion polypeptide)
B10: MLC046 (ligand)
chain: B4 chain with K71P, P91K
modifications: Moiety A (HOOC-(CH2)16-CO-gGlu-2XADO) on 60K of linker (91K of fusion polypeptide)
B11: MLC103 (ligand)
chain: B4 chain with K71P, Q102K
modifications: Moiety A (HOOC-(CH2)16-CO-gGlu-2XADO) on 71K of Linker (102K of fusion polypeptide)
B12: MLC104 (ligand)
chain: B4 chain with K71P, P107K
modifications: Moiety A (HOOC-(CH2)16-CO-gGlu-2XADO) on 76K of Linker (107K of fusion polypeptide)
B13: MLC045 (ligand)
chain: B4 chain with G32K, K71P, Q86K
modifications: Moiety A (HOOC-(CH2)16-CO-gGlu-2XADO) on 1K and 55K of Linker (32K and 86K of fusion polypeptide)
B14: MLC074 (ligand)
chain: B4 chain with R20K, K71P, G72C, R180K, R202K, R218K
modifications: Moiety B (HOOC-(CH2)16-CO-gGlu-2XADO-EDA-CO-CH2) on 41C of Linker (72C of fusion polypeptide)
B15: MLC005 (ligand)
chain: HGEGTFTSDVSSYLEEQAAREFIAWLVRGGGGQEPGQEPGQEKGQEPGQEPGQEPGQEPGQEPGAQPGAQPARQGDHCPLGPGRCCRLHTVRASLEDLGWADWVLSPREVQVTMCIGACPSQFRAANLHAQIKTSLHRLRPDTVPAPCCVPASYNPMVLIQRTDTGVSLQTYDDLLARDCHCI
modifications: Moiety A (HOOC-(CH2)16-CO-gGlu-2XADO) on 12K of Linker (43K of fusion polypeptide)
B16: MLC075 (ligand)
chain: B4 chain with R20K, K71P, G72C, R180K, R202K, R218K
modifications: Moiety C (HOOC-(CH2)20-CO-gGlu-2XADO-EDA-CO-CH2) on 41C of Linker (72C of fusion polypeptide)
B17: MLC088 (ligand)
chain: B1 chain with C48G, Q49A, A50Q, G72C
modifications: Moiety C (HOOC-(CH2)20-CO-gGlu-2XADO-EDA-CO-CH2) on 41C of Linker (72C of fusion polypeptide)
B18: MLC083 (ligand)
chain: B4 chain with R20K, A69Q, Q70C, K71P, R180K, R202K, R218K
modifications: Moiety B (HOOC-(CH2)16-CO-gGlu-2XADO-EDA-CO-CH2) on 39C of Linker (70C of fusion polypeptide)
B19: MLC084 (ligand)
chain: B4 chain with R20K, A69Q, Q70C, K71P, R180K, R202K, R218K
modifications: Moiety C (HOOC-(CH2)20-CO-gGlu-2XADO-EDA-CO-CH2) on 39C of Linker (70C of fusion polypeptide)
B20: MLC090 (ligand)
chain: B1 chain with C48G, Q49A, A50Q, A69Q, Q70C
modifications: Moiety C (HOOC-(CH2)20-CO-gGlu-2XADO-EDA-CO-CH2) on 39C of Linker (70C of fusion polypeptide)
B21: MLC085 (ligand)
chain: B4 chain with R20K, G68C, A69Q, Q70A, K71P, R180K, R202K, R218K
modifications: Moiety B (HOOC-(CH2)16-CO-gGlu-2XADO-EDA-CO-CH2) on 37C of Linker (68C of fusion polypeptide)
B22: MLC086 (ligand)
chain: B4 chain with R20K, G68C, A69Q, Q70A, K71P, R180K, R202K, R218K
modifications: Moiety C (HOOC-(CH2)20-CO-gGlu-2XADO-EDA-CO-CH2) on 37C of Linker (68C of fusion polypeptide)
B23: MLC080 (ligand)
chain: B4 chain with R20K, E66C, K71P, A81Q, Q82E, R180K, R202K, R218K
modifications: Moiety B (HOOC-(CH2)16-CO-gGlu-2XADO-EDA-CO-CH2) on 35C of Linker (66C of fusion polypeptide)
B24: MLC081 (ligand)
chain: B4 chain with R20K, E66C, K71P, A81Q, Q82E, R180K, R202K, R218K
modifications: Moiety C (HOOC-(CH2)20-CO-gGlu-2XADO-EDA-CO-CH2) on 35C of Linker (66C of fusion polypeptide)
B25: MLC091 (ligand)
chain: B1 chain with C48G, Q49A, A50Q, E66C
modifications: Moiety B (HOOC-(CH2)16-CO-gGlu-2XADO-EDA-CO-CH2) on 35C of Linker (66C of fusion polypeptide)
B26: MLC092 (ligand)
chain: B1 chain with C48G, Q49A, A50Q, E66C
modifications: Moiety C (HOOC-(CH2)20-CO-gGlu-2XADO-EDA-CO-CH2) on 35C of Linker (66C of fusion polypeptide)
B27: Native GDF15 (ligand)
chain: ARNGDHCPLGPGRCCRLHTVRASLEDLGWADWVLSPREVQVTMCIGACPSQFRAANMHAQIKTSLHRLKPDTVPAPCCVPASYNPMVLIQKTDTGVSLQTYDDLLAKDCHCI
B28: MLC127 (ligand)
chain: B1 chain with K20C, C48G, Q49A, A50Q
modifications: Moiety B (HOOC-(CH2)16-CO-gGlu-2XADO-EDA-CO-CH2) on 26C of GLP-1 (20C of fusion polypeptide)
B29: MLC122 (ligand)
chain: B1 chain with G36C, A37Q, Q38A, C48G, Q49A, A50Q
modifications: Moiety B (HOOC-(CH2)16-CO-gGlu-2XADO-EDA-CO-CH2) on 5C of Linker (36C of fusion polypeptide)
B30: MLC126 (ligand)
chain: B1 chain with C48G, Q49A, A50Q, G104C
modifications: Moiety B (HOOC-(CH2)16-CO-gGlu-2XADO-EDA-CO-CH2) on 73C of Linker (104C of fusion polypeptide)
B31: MLC123 (ligand)
chain: B1 chain with C48G, Q49A, A50Q, A109Q, Q110C
modifications: Moiety B (HOOC-(CH2)16-CO-gGlu-2XADO-EDA-CO-CH2) on 79C of Linker (110C of fusion polypeptide)

Biological target: T2, human GLP-1 receptor (human, UniProt P43220 24-463)
Assay: cell-based or functional assay

| Binder | GLP-1 activity (EC50, pM) |
| --- | --- |
| B1 | 10 pM |
| B2 | 1.1 pM |
| B3 | 0.9 pM |
| B4 | 1 pM |
| B5 | 1.3 pM |
| B6 | 8.3 pM |
| B7 | 2.5 pM |
| B8 | 3.3 pM |
| B9 | 2.8 pM |
| B10 | 1 pM |
| B11 | 0.89 pM |
| B12 | 0.88 pM |
| B13 | 1.2 pM |
| B14 | 0.94 pM |
| B15 | 3 pM |
| B16 | 1.3 pM |
| B17 | 1.6 pM |
| B18 | 1.7 pM |
| B19 | 1.3 pM |
| B20 | 1.5 pM |
| B21 | 1.5 pM |
| B22 | 1.1 pM |
| B23 | 1.6 pM |
| B24 | 1.2 pM |
| B25 | 2 pM |
| B26 | 2.2 pM |

Biological target: T1, human GFRAL
Assay: cell-based or functional assay

| Binder | GDF15 activity (EC50, pM) |
| --- | --- |
| B1 | 50 pM |
| B2 | 59.3 pM |
| B27 | 8.1 pM |
| B3 | 52.3 pM |
| B4 | 59.4 pM |
| B5 | 116 pM |
| B6 | 17.3 pM |
| B7 | 110 pM |
| B8 | 75.5 pM |
| B9 | 77.6 pM |
| B10 | 78.9 pM |
| B11 | 79.2 pM |
| B12 | 79.4 pM |
| B13 | 114 pM |
| B14 | 41.1 pM |
| B15 | 20.3 pM |
| B16 | 48.6 pM |
| B17 | 30.2 pM |
| B18 | 52.4 pM |
| B19 | 70.5 pM |
| B20 | 23.6 pM |
| B21 | 22 pM |
| B22 | 32.4 pM |
| B23 | 86.8 pM |
| B24 | 69.8 pM |
| B25 | 34.9 pM |
| B26 | 48.6 pM |

Biological target: T2, human GLP-1 receptor
Assay: cell-based or functional assay
Remark: another data set of the same source

| Binder | GLP-1 activity (EC50, pM, 1% HSA) |
| --- | --- |
| B1 | 168 pM |
| B2 | 39.9 pM |
| B28 | 872 pM |
| B29 | 434 pM |
| B30 | 9.67 pM |
| B31 | 9.53 pM |

Biological target: T1, human GFRAL
Assay: cell-based or functional assay
Remark: another data set of the same source

| Binder | GDF15 activity (EC50, pM, 1% HSA) |
| --- | --- |
| B1 | 55.5 pM |
| B2 | 58 pM |
| B27 | 11.3 pM |
| B28 | 72.8 pM |
| B29 | 70.2 pM |
| B30 | 1670 pM |
| B31 | 1360 pM |

Reference: US20220017589A1 (BEIJING QL BIOPHARMACEUTICAL, published 2022)
